Assays:
[1] = molecular target: T1, Human Myelin Basic Protein (Homo sapiens, UniProt P02686); assay: Phage display library screening (Example 1, Power BI analysis), binding to Human Myelin Basic Protein; design: Enzo 200-606-M001 from human; purchased Enzo 200-606-M001; host or cells: human brain (tissue-derived); conditions: R3 Myelin Basic Protein, NextGen sequencing count of phage sequences distinct for this target
Description: (§1) Phage display library screens were used to identify peptides that bind to target proteins that are expressed in human nerves and could therefore be useful for systemic in-vivo labeling of nerves during fluorescence assisted surgery. Specifically, m13 phage libraries expressing 7 or 12 random amino acid peptides, or a cyclic peptide CX7C, on the N-terminus of the minor coat protein pIII (New England Biolabs) were processed through multiple rounds of selection for binding to target proteins expressed in peripheral nerve (Table 1).
(§2) The library was processed through up to 4 binding and wash cycles. For selection, phage libraries were incubated for up to 24 hours at 4° C. in 96 well plates that had been coated with one of the target proteins. Plates were then washed with PBS and phage were eluted using 0.2M glycine pH 2.0. Phage supernatants where then neutralized with Tris pH 9.0 prior to plating on TG1 bacteria and LB agar plates. Colonies were counted to determine titer followed by DNA preparation of pools of phage and NextGen sequencing. After rounds of selection, phage were pooled and amplified for iterative selection. Phage that were bound at each round were sequenced. NextGen sequencing of pools after 2, 3 and 4 rounds of selection was used to isolate candidate sequences that were analyzed further to identify those that specifically bound each unique target protein.
(§3) DNA sequences were trimmed of all vector amino acids and imported as a peptide dataset into Power BI. Power BI was used to identify phage display sequences for specific columns (corresponding to each target protein) in order to identify sequences that were distinct for each protein target. The Power BI code evaluated each individual sequence for each protein target against the sequences present in other protein targets in a test for uniqueness. Using the distinct flag, the Power BI code generated a filtered peptide dataset that excluded any peptide sequence that occur in more than one column which identified a specific protein target. This method therefore identified candidate peptide sequences showing selective binding to an individual target protein. Unique sequences in each column were sorted by individual counts such that the most selected sequences appeared at the top of the column.

[2] = molecular target: T1, Human Myelin Basic Protein; assay: Phage display library screening (Example 2, Python script analysis), binding to Human Myelin Basic Protein; design: Enzo 200-606-M001 from human; purchased Enzo 200-606-M001; host or cells: human brain (tissue-derived); conditions: R3 Myelin Basic Protein; combined unique sequence count, Python/R script analysis
Summary of the method: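 Target protein-coated wells were panned with M13 phage libraries displaying 7- or 12-mer random or cyclic CX7C peptides on pIII, over up to 4 rounds (up to 24 h, 4° C), with glycine pH 2.0 elution. Pools from rounds 2–4 were NextGen-sequenced. Peptides specific to each target were ranked by unique sequence count.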

Human MPZ [3] = molecular target: T2, Human MPZ (Homo sapiens, UniProt P25189); assay: Phage display library screening (Example 1, Power BI analysis), binding to Human MPZ; conditions: R3 Human MPZ, NextGen sequencing count of phage sequences distinct for this target
T2 construct: purchased Novoprotein (lysate); Bon Opus Biosciences (recombinant protein) NBL1 1321 (lysate); no catalogue number printed for the Bon Opus protein
T2 sequence (P25189 30-248): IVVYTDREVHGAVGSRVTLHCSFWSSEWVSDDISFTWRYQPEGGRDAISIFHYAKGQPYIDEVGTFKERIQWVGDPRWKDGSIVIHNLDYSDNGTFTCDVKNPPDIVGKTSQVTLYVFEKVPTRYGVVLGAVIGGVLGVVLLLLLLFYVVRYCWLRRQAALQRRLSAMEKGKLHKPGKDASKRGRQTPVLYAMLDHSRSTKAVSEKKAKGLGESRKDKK
Description: as §1, §2, §3

Human MPZ [4] = assay: Phage display library screening (Example 2, Python script analysis), binding to Human MPZ; conditions: combined unique sequence count, Python/R script analysis
Description: (§4) Phage display library screens were used to identify peptides that bind to target proteins (including specific laminin trimers) that are expressed in human nerves, as described in Table 3. These screens were also carried out to identify peptides that could bind selectively to nerves versus muscle. Such peptides could therefore be useful for systemic in-vivo labeling of nerves during fluorescence assisted surgery. Specifically, m 13 phage libraries expressing 7 or 12 random amino acid peptides, or a cyclic peptide CX7C, on the N-terminus of the minor coat protein pIII (New England Biolabs; NEB) were processed through multiple rounds of selection for binding to target proteins expressed in nerves, or to excised human nerves, nerve extracts, or muscle, as described further below.
as §2, with “For screening against the specified target proteins in Table 1, including LN211, LN411, LN421, and LN521, the phage” for “The”, “by” for “through”, “TGI” for “TG1”
(§5) Python Script Analysis: For all NEB sequence datasets, a python script was used to translate, trim, and filter the peptide sequences. The script translated the nucleotide sequences, translating amber codons as glutamine in peptide sequences, and then trimmed the end sequences that come from the vector. Secondly, the script combined the unique counts of trimmed peptides with identical sequences. […] Another python script was used to group peptides from different assays according to protein target (Myelin Protein Zero, Myelin Proteolipid Protein, Myelin Basic Protein, and Nidogen-2) and also combine the unique sequence counts for each peptide. An R script was written to merge the peptide sequences from different data files and determine peptides specific for each protein target but absent from different protein binding datasets. Peptide sequences were ranked by unique sequence count.

Human Myelin PLP [5] = assay: Phage display library screening (Example 1, Power BI analysis), binding to Human Myelin PLP; conditions: R3 Myelin PLP, NextGen sequencing count of phage sequences distinct for this target
Description: as §1, §2, §3

Human Myelin PLP [6] = assay: Phage display library screening (Example 2, Python script analysis), binding to Human Myelin PLP; conditions: combined unique sequence count, Python/R script analysis
Description: as §4
as §2, with “For screening against the specified target proteins in Table 1, including LN211, LN411, LN421, and LN521, the phage” for “The”, “by” for “through”, “TGI” for “TG1”
as §5

T1 sequence (P02686 134-304): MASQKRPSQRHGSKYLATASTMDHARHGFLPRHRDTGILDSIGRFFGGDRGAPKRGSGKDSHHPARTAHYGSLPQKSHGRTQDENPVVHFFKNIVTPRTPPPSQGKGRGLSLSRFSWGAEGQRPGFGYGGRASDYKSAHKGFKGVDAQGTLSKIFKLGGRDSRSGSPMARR

SPDRTSL (R3 Myelin Basic Protein-binding peptide)
Count [1]: 12 | Count [2]: 12

DRNSVFW (R3 Human MPZ-binding peptide)
Count (Human MPZ [3]): 50 | Count (Human MPZ [4]): 50

LSSPLSL (R3 Human MPZ-binding peptide)
Count (Human MPZ [3]): 56 | Count (Human MPZ [4]): 56

QNTGLKW (R3 Myelin Basic Protein-binding peptide)
Count [1]: 11 | Count [2]: 11

GLIRHYT (R3 Myelin PLP-binding peptide)
Count (Human Myelin PLP [5]): 66 | Count (Human Myelin PLP [6]): 66

AGFPPNT (R3 Myelin Basic Protein-binding peptide)
Count [1]: 10

HRLPWHH (R3 Myelin Basic Protein-binding peptide)
Count [1]: 10 | Count [2]: 10

EKPSWTR (R3 Myelin PLP-binding peptide)
Count (Human Myelin PLP [5]): 33 | Count (Human Myelin PLP [6]): 33

SHSPGNK (R3 Human MPZ-binding peptide)
Count (Human MPZ [3]): 67 | Count (Human MPZ [4]): 79

HPSTWHK (R3 Myelin Basic Protein-binding peptide)
Count [1]: 18

LTHHFAP (R3 Myelin PLP-binding peptide)
Count (Human Myelin PLP [5]): 40 | Count (Human Myelin PLP [6]): 40

YPKLWTY (R3 Myelin PLP-binding peptide)
Count (Human Myelin PLP [5]): 35 | Count (Human Myelin PLP [6]): 35

LRPISHE (R3 Myelin Basic Protein-binding peptide)
Count [1]: 12

DPWVMLR (R3 Myelin Basic Protein-binding peptide)
Count [1]: 11 | Count [2]: 11

VLTKPMP (R3 Human MPZ-binding peptide)
Count (Human MPZ [3]): 56 | Count (Human MPZ [4]): 56

GLTPKLF (R3 Human MPZ-binding peptide)
Count (Human MPZ [3]): 48

WTMKPNY (R3 Myelin Basic Protein-binding peptide)
Count [1]: 13 | Count [2]: 14

FKMPIPT (R3 Myelin PLP-binding peptide)
Count (Human Myelin PLP [5]): 34 | Count (Human Myelin PLP [6]): 34

SAHAKHH (R3 Human MPZ-binding peptide)
Count (Human MPZ [3]): 51 | Count (Human MPZ [4]): 52

DGKNTSN (R3 Myelin Basic Protein-binding peptide)
Count [1]: 10

ALPLSAS (R3 Human MPZ-binding peptide)
Count (Human MPZ [3]): 196 | Count (Human MPZ [4]): 197

AITSRNA (R3 Myelin Basic Protein-binding peptide)
Count [1]: 15

GPFLFTV (R3 Myelin PLP-binding peptide)
Count (Human Myelin PLP [5]): 47

VLKNNPT (R3 Human MPZ-binding peptide)
Count (Human MPZ [3]): 86 | Count (Human MPZ [4]): 87

TSPWELR (R3 Human MPZ-binding peptide)
Count (Human MPZ [3]): 107 | Count (Human MPZ [4]): 108

LPMRILT (R3 Myelin Basic Protein-binding peptide)
Count [1]: 16 | Count [2]: 16

TNPWKPH (R3 Myelin PLP-binding peptide)
Count (Human Myelin PLP [5]): 62 | Count (Human Myelin PLP [6]): 62

IKPPYTH (R3 Human MPZ-binding peptide)
Count (Human MPZ [3]): 78 | Count (Human MPZ [4]): 82

ATLKPYR (R3 Myelin PLP-binding peptide)
Count (Human Myelin PLP [5]): 68 | Count (Human Myelin PLP [6]): 68

DPITRLK (R3 Human MPZ-binding peptide)
Count (Human MPZ [3]): 92 | Count (Human MPZ [4]): 93

GDERIVRTLSHN (R3 Human MPZ-binding peptide)
Count (Human MPZ [3]): 47

QIGVLPS (R3 Myelin Basic Protein-binding peptide)
Count [1]: 11

SHLASRP (R3 Human MPZ-binding peptide)
Count (Human MPZ [3]): 97

LRFQIPP (R3 Myelin PLP-binding peptide)
Count (Human Myelin PLP [5]): 44 | Count (Human Myelin PLP [6]): 44

SVLRMLN (R3 Myelin Basic Protein-binding peptide)
Count [1]: 16

FPVVTRN (R3 Myelin PLP-binding peptide)
Count (Human Myelin PLP [5]): 42

HQGSRTY (R3 Myelin PLP-binding peptide)
Count (Human Myelin PLP [5]): 53 | Count (Human Myelin PLP [6]): 53

MTPHTSC (R3 Myelin PLP-binding peptide)
Count (Human Myelin PLP [5]): 62

EHGYYKV (R3 Myelin Basic Protein-binding peptide)
Count [1]: 16 | Count [2]: 17

AWSTSSV (R3 Myelin Basic Protein-binding peptide)
Count [1]: 12 | Count [2]: 12

MQTQGRV (R3 Myelin Basic Protein-binding peptide)
Count [1]: 12

TMASPAK (R3 Human MPZ-binding peptide)
Count (Human MPZ [3]): 52 | Count (Human MPZ [4]): 58

SMWSQFR (R3 Myelin PLP-binding peptide)
Count (Human Myelin PLP [5]): 34 | Count (Human Myelin PLP [6]): 34

GPLRMAT (R3 Human MPZ-binding peptide)
Count (Human MPZ [3]): 50 | Count (Human MPZ [4]): 51

ETTRNYG (R3 Human MPZ-binding peptide)
Count (Human MPZ [3]): 68 | Count (Human MPZ [4]): 69

NPSHHPR (R3 Myelin PLP-binding peptide)
Count (Human Myelin PLP [5]): 37 | Count (Human Myelin PLP [6]): 37

NDTKTPS (R3 Myelin Basic Protein-binding peptide)
Count [1]: 19

KMAGHTV (R3 Human MPZ-binding peptide)
Count (Human MPZ [3]): 51 | Count (Human MPZ [4]): 54

WPSISRP (R3 Human MPZ-binding peptide)
Count (Human MPZ [3]): 57 | Count (Human MPZ [4]): 58

YTPMGTG (R3 Myelin PLP-binding peptide)
Count (Human Myelin PLP [5]): 50 | Count (Human Myelin PLP [6]): 50

DTSRTME (R3 Myelin PLP-binding peptide)
Count (Human Myelin PLP [5]): 33 | Count (Human Myelin PLP [6]): 33

TESLFPH (R3 Human MPZ-binding peptide)
Count (Human MPZ [3]): 50 | Count (Human MPZ [4]): 52

AGQLMRCANC (R3 Myelin Basic Protein-binding peptide)
Count [1]: 12

SKSDAWR (R3 Myelin Basic Protein-binding peptide)
Count [1]: 14

ILLPSLN (R3 Myelin Basic Protein-binding peptide)
Count [1]: 13

RVPHSRT (R3 Human MPZ-binding peptide)
Count (Human MPZ [3]): 49
